Reference: patent US20260015399A1 (Boehringer Ingelheim, published 2026)
*1 amine or outer side, *2 acyl side, *3 side chain or, on linkers, in order; H or OH if unused. Side-chain parts run from the residue outwards. The star is where a group is joined. C18 diacid = O=C(O)CCCCCCCCCCCCCCCCC(=O)*; γGlu = O=C(O)[C@H](CCC(=O)[*:2])N[*:1]; Isovaleryl = CC(C)CC(=O)*; Ahx = NCCCCCC(=O)O

Target: T1, human NPY2 receptor (human, UniProt P49146 1-381)
T1 construct: whole, on cells; also called hNPY2-R; hNPY2R
T1 sequence (looked up): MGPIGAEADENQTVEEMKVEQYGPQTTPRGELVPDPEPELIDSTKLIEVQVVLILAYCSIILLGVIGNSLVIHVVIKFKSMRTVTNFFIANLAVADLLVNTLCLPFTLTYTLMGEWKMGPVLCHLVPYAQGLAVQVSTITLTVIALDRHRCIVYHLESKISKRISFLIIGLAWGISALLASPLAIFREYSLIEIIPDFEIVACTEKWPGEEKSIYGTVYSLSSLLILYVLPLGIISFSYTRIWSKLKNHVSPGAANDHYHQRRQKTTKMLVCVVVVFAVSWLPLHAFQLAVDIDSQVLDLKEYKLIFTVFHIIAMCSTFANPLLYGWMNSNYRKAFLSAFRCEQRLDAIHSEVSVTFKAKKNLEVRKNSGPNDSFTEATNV
Test: RLB: displacement of 125I-PYY(1-36) from hNPY2R membranes

| Ki [nM] | Binder |
| --- | --- |
| 14 | Isovaleryl-APEK([Ahx-γGlu-C18 diacid])PEEDLTPEELQRYYVSLRHYYNWLTRQRY-NH2 (SMILES CC(C)CC(=O)N[C@@H](C)C(=O)N1CCC[C@H]1C(=O)N[C@@H](CCC(=O)O)C(=O)N[C@@H](CCCCNC(=O)CCCCCNC(=O)CC[C@H](NC(=O)CCCCCCCCCCCCCCCCC(=O)O)C(=O)O)C(=O)N1CCC[C@H]1C(=O)N[C@@H](CCC(=O)O)C(=O)N[C@@H](CCC(=O)O)C(=O)N[C@@H](CC(=O)O)C(=O)N[C@@H](CC(C)C)C(=O)N[C@H](C(=O)N1CCC[C@H]1C(=O)N[C@@H](CCC(=O)O)C(=O)N[C@@H](CCC(=O)O)C(=O)N[C@@H](CC(C)C)C(=O)N[C@@H](CCC(N)=O)C(=O)N[C@@H](CCCNC(=N)N)C(=O)N[C@@H](Cc1ccc(O)cc1)C(=O)N[C@@H](Cc1ccc(O)cc1)C(=O)N[C@H](C(=O)N[C@@H](CO)C(=O)N[C@@H](CC(C)C)C(=O)N[C@@H](CCCNC(=N)N)C(=O)N[C@@H](Cc1c[nH]cn1)C(=O)N[C@@H](Cc1ccc(O)cc1)C(=O)N[C@@H](Cc1ccc(O)cc1)C(=O)N[C@@H](CC(N)=O)C(=O)N[C@@H](Cc1c[nH]c2ccccc12)C(=O)N[C@@H](CC(C)C)C(=O)N[C@H](C(=O)N[C@@H](CCCNC(=N)N)C(=O)N[C@@H](CCC(N)=O)C(=O)N[C@@H](CCCNC(=N)N)C(=O)N[C@@H](Cc1ccc(O)cc1)C(N)=O)[C@@H](C)O)C(C)C)[C@@H](C)O) [Compound 109] |
| 6.42 | Isovaleryl-APEK([Ahx-γGlu-C18 diacid])PEEDATPEELQRYYVELRHYYNWLTRQRY-NH2 (SMILES CC(C)CC(=O)N[C@@H](C)C(=O)N1CCC[C@H]1C(=O)N[C@@H](CCC(=O)O)C(=O)N[C@@H](CCCCNC(=O)CCCCCNC(=O)CC[C@H](NC(=O)CCCCCCCCCCCCCCCCC(=O)O)C(=O)O)C(=O)N1CCC[C@H]1C(=O)N[C@@H](CCC(=O)O)C(=O)N[C@@H](CCC(=O)O)C(=O)N[C@@H](CC(=O)O)C(=O)N[C@@H](C)C(=O)N[C@H](C(=O)N1CCC[C@H]1C(=O)N[C@@H](CCC(=O)O)C(=O)N[C@@H](CCC(=O)O)C(=O)N[C@@H](CC(C)C)C(=O)N[C@@H](CCC(N)=O)C(=O)N[C@@H](CCCNC(=N)N)C(=O)N[C@@H](Cc1ccc(O)cc1)C(=O)N[C@@H](Cc1ccc(O)cc1)C(=O)N[C@H](C(=O)N[C@@H](CCC(=O)O)C(=O)N[C@@H](CC(C)C)C(=O)N[C@@H](CCCNC(=N)N)C(=O)N[C@@H](Cc1c[nH]cn1)C(=O)N[C@@H](Cc1ccc(O)cc1)C(=O)N[C@@H](Cc1ccc(O)cc1)C(=O)N[C@@H](CC(N)=O)C(=O)N[C@@H](Cc1c[nH]c2ccccc12)C(=O)N[C@@H](CC(C)C)C(=O)N[C@H](C(=O)N[C@@H](CCCNC(=N)N)C(=O)N[C@@H](CCC(N)=O)C(=O)N[C@@H](CCCNC(=N)N)C(=O)N[C@@H](Cc1ccc(O)cc1)C(N)=O)[C@@H](C)O)C(C)C)[C@@H](C)O) [Compound 110] |
| 5.73 | Isovaleryl-APEK([Ahx-γGlu-C18 diacid])PEEDATPEESQRYYVSLRHYYNWLTRQRY-NH2 (SMILES CC(C)CC(=O)N[C@@H](C)C(=O)N1CCC[C@H]1C(=O)N[C@@H](CCC(=O)O)C(=O)N[C@@H](CCCCNC(=O)CCCCCNC(=O)CC[C@H](NC(=O)CCCCCCCCCCCCCCCCC(=O)O)C(=O)O)C(=O)N1CCC[C@H]1C(=O)N[C@@H](CCC(=O)O)C(=O)N[C@@H](CCC(=O)O)C(=O)N[C@@H](CC(=O)O)C(=O)N[C@@H](C)C(=O)N[C@H](C(=O)N1CCC[C@H]1C(=O)N[C@@H](CCC(=O)O)C(=O)N[C@@H](CCC(=O)O)C(=O)N[C@@H](CO)C(=O)N[C@@H](CCC(N)=O)C(=O)N[C@@H](CCCNC(=N)N)C(=O)N[C@@H](Cc1ccc(O)cc1)C(=O)N[C@@H](Cc1ccc(O)cc1)C(=O)N[C@H](C(=O)N[C@@H](CO)C(=O)N[C@@H](CC(C)C)C(=O)N[C@@H](CCCNC(=N)N)C(=O)N[C@@H](Cc1c[nH]cn1)C(=O)N[C@@H](Cc1ccc(O)cc1)C(=O)N[C@@H](Cc1ccc(O)cc1)C(=O)N[C@@H](CC(N)=O)C(=O)N[C@@H](Cc1c[nH]c2ccccc12)C(=O)N[C@@H](CC(C)C)C(=O)N[C@H](C(=O)N[C@@H](CCCNC(=N)N)C(=O)N[C@@H](CCC(N)=O)C(=O)N[C@@H](CCCNC(=N)N)C(=O)N[C@@H](Cc1ccc(O)cc1)C(N)=O)[C@@H](C)O)C(C)C)[C@@H](C)O) [Compound 119] |
| 4.28 | Isovaleryl-APEK([Ahx-γGlu-C18 diacid])PEEDAEPEEIQRYYVSLRHYYNWLTRQRY-NH2 (SMILES CC[C@H](C)[C@H](NC(=O)[C@H](CCC(=O)O)NC(=O)[C@H](CCC(=O)O)NC(=O)[C@@H]1CCCN1C(=O)[C@H](CCC(=O)O)NC(=O)[C@H](C)NC(=O)[C@H](CC(=O)O)NC(=O)[C@H](CCC(=O)O)NC(=O)[C@H](CCC(=O)O)NC(=O)[C@@H]1CCCN1C(=O)[C@H](CCCCNC(=O)CCCCCNC(=O)CC[C@H](NC(=O)CCCCCCCCCCCCCCCCC(=O)O)C(=O)O)NC(=O)[C@H](CCC(=O)O)NC(=O)[C@@H]1CCCN1C(=O)[C@H](C)NC(=O)CC(C)C)C(=O)N[C@@H](CCC(N)=O)C(=O)N[C@@H](CCCNC(=N)N)C(=O)N[C@@H](Cc1ccc(O)cc1)C(=O)N[C@@H](Cc1ccc(O)cc1)C(=O)N[C@H](C(=O)N[C@@H](CO)C(=O)N[C@@H](CC(C)C)C(=O)N[C@@H](CCCNC(=N)N)C(=O)N[C@@H](Cc1c[nH]cn1)C(=O)N[C@@H](Cc1ccc(O)cc1)C(=O)N[C@@H](Cc1ccc(O)cc1)C(=O)N[C@@H](CC(N)=O)C(=O)N[C@@H](Cc1c[nH]c2ccccc12)C(=O)N[C@@H](CC(C)C)C(=O)N[C@H](C(=O)N[C@@H](CCCNC(=N)N)C(=O)N[C@@H](CCC(N)=O)C(=O)N[C@@H](CCCNC(=N)N)C(=O)N[C@@H](Cc1ccc(O)cc1)C(N)=O)[C@@H](C)O)C(C)C) [Compound 112] |
| 2.14 | Isovaleryl-APAK([Ahx-γGlu-C18 diacid])PEAAAEPEEIQRYYVSLRHYYNWLTRQRY-NH2 (SMILES CC[C@H](C)[C@H](NC(=O)[C@H](CCC(=O)O)NC(=O)[C@H](CCC(=O)O)NC(=O)[C@@H]1CCCN1C(=O)[C@H](CCC(=O)O)NC(=O)[C@H](C)NC(=O)[C@H](C)NC(=O)[C@H](C)NC(=O)[C@H](CCC(=O)O)NC(=O)[C@@H]1CCCN1C(=O)[C@H](CCCCNC(=O)CCCCCNC(=O)CC[C@H](NC(=O)CCCCCCCCCCCCCCCCC(=O)O)C(=O)O)NC(=O)[C@H](C)NC(=O)[C@@H]1CCCN1C(=O)[C@H](C)NC(=O)CC(C)C)C(=O)N[C@@H](CCC(N)=O)C(=O)N[C@@H](CCCNC(=N)N)C(=O)N[C@@H](Cc1ccc(O)cc1)C(=O)N[C@@H](Cc1ccc(O)cc1)C(=O)N[C@H](C(=O)N[C@@H](CO)C(=O)N[C@@H](CC(C)C)C(=O)N[C@@H](CCCNC(=N)N)C(=O)N[C@@H](Cc1c[nH]cn1)C(=O)N[C@@H](Cc1ccc(O)cc1)C(=O)N[C@@H](Cc1ccc(O)cc1)C(=O)N[C@@H](CC(N)=O)C(=O)N[C@@H](Cc1c[nH]c2ccccc12)C(=O)N[C@@H](CC(C)C)C(=O)N[C@H](C(=O)N[C@@H](CCCNC(=N)N)C(=O)N[C@@H](CCC(N)=O)C(=O)N[C@@H](CCCNC(=N)N)C(=O)N[C@@H](Cc1ccc(O)cc1)C(N)=O)[C@@H](C)O)C(C)C) [Compound 111] |
| 3.53 | Isovaleryl-APEK([Ahx-γGlu-C18 diacid])PEEDATPEEIQRYYVSLRHYQNWLTRQRY-NH2 (SMILES CC[C@H](C)[C@H](NC(=O)[C@H](CCC(=O)O)NC(=O)[C@H](CCC(=O)O)NC(=O)[C@@H]1CCCN1C(=O)[C@@H](NC(=O)[C@H](C)NC(=O)[C@H](CC(=O)O)NC(=O)[C@H](CCC(=O)O)NC(=O)[C@H](CCC(=O)O)NC(=O)[C@@H]1CCCN1C(=O)[C@H](CCCCNC(=O)CCCCCNC(=O)CC[C@H](NC(=O)CCCCCCCCCCCCCCCCC(=O)O)C(=O)O)NC(=O)[C@H](CCC(=O)O)NC(=O)[C@@H]1CCCN1C(=O)[C@H](C)NC(=O)CC(C)C)[C@@H](C)O)C(=O)N[C@@H](CCC(N)=O)C(=O)N[C@@H](CCCNC(=N)N)C(=O)N[C@@H](Cc1ccc(O)cc1)C(=O)N[C@@H](Cc1ccc(O)cc1)C(=O)N[C@H](C(=O)N[C@@H](CO)C(=O)N[C@@H](CC(C)C)C(=O)N[C@@H](CCCNC(=N)N)C(=O)N[C@@H](Cc1c[nH]cn1)C(=O)N[C@@H](Cc1ccc(O)cc1)C(=O)N[C@@H](CCC(N)=O)C(=O)N[C@@H](CC(N)=O)C(=O)N[C@@H](Cc1c[nH]c2ccccc12)C(=O)N[C@@H](CC(C)C)C(=O)N[C@H](C(=O)N[C@@H](CCCNC(=N)N)C(=O)N[C@@H](CCC(N)=O)C(=O)N[C@@H](CCCNC(=N)N)C(=O)N[C@@H](Cc1ccc(O)cc1)C(N)=O)[C@@H](C)O)C(C)C) [Compound 113] |
